In one test the target is T1, Src SH3-GST (Homo sapiens, UniProt P12931).
T1 construct: Bacterially expressed Src SH3 glutathione-S-transferase (Src-GST) fusion protein was purified from bacterial lysates; made in house; host or cells: bacteria (pGEX vector)
In words: Biotinylated synthetic peptide binding ELISA to immobilized Src SH3-GST. The following applies: for binding to Src SH3 domain (Src SH3-GST): 10 μM biotinylated peptide, streptavidin-alkaline phosphatase ELISA, FIGS. 7 and 8; for relative specificity of binding for SH3 domains of different proteins: Src family versus Grb2, Crk, Abl, PLCγ SH3 domains, FIG. 8. On the procedure:
(§1) These biotinylated peptides were assayed for direct binding to immobilized Src SH3-GST. […] Furthermore, a strong correlation was observed between the similarity of a given peptide to the preferred core consensus sequence RPLP(P/M)LP (SEQ ID NO:96) and the peptide's affinity for Src SH3-GST.
(§2) The preparation of Src-GST fusion protein was first described by Smith and Johnson, in Gene (1988) 67:31, the disclosure of which is incorporated by reference herein. Briefly, pGEX-derived (Pharmacia, Piscataway, N.J.) constructs expressing GST fusion proteins containing the SH3 domains of Src, Grb2, Crk, Abl, or PLCγ were obtained from Dr. Channing Der (University of North Carolina at Chapel Hill); a construct expressing the SH3 domain of Yes was obtained from Dr. Marius Sudol (Rockefeller University). The use of the pGEX bacterial expression vector for the production of GST-SH3 fusion proteins is well-known to those in the art. See, e.g., Cicchetti, P. et al., in Science (1992) 257:803-806. Briefly, the coding region for a particular SH3 domain can be fused in-frame at the Bam HI site of pGEX-2T. Thus, fusion proteins were prepared as per the manufacturer's instructions, and quantified by Coomassie Blue staining of SDS-polyacrylamide gels. Microtiter wells were coated with 5-20 μg GST-SH3 fusion protein in 100 mM NaHCO3, pH 8.5, blocked with 100 mM NaHCO3 (pH 8.5) 1% BSA, and washed. All washes consisted of five applications of 1XPBS, 0.1% Tween 20, 0.1% BSA (Buffer A). Where appropriate, the amount of protein bound to each well was quantified with an anti-GST antibody-based ELISA (Pharmacia, Piscataway, N.J.), and with a GST-binding phage, isolated during the course of this work.
Bacterially expressed Src SH3 glutathione-S-transferase (Src-GST) fusion protein was purified from bacterial lysates using glutathione agarose 4B (Pharmacia), according to the manufacturer's instructions. Bound Src-GST fusion protein was eluted from the glutathione agarose with 10 mM glutathione in PBS. Microtiter wells were then coated with Src-GST fusion protein (1-10 μg/well, in 50 mM NaHCO3, pH 8.5) overnight at 4° C. To block non-specific binding of phage, 100 μL 1% BSA in 100 mM NaHCO3, pH 8.5, was added to each well and allowed to incubate at room temperature for 1 hour. The wells were then washed five times with 200 μL PBS, 0.1% Tween™ 20, 0.1% BSA (Buffer A).
(§3) Peptides were obtained from Research Genetics (Birmingham, Ala.), Chiron Mimotopes (Victoria, Australia), or synthesized by conventional techniques by Dr. J. Mark Carter of Cytogen Corporation (Princeton, N.J.). Peptide purity was assessed by HPLC and/or mass spectrometry. Biotinylated peptides were synthesized with either a KSGSG (SEQ ID NO:103) or a GSGS (SEQ ID NO:104) peptide linker (a spacer) between the biotin and the N-terminus of the peptide. Binding experiments were performed as above, excepting the use of 10 μM peptide instead of phage. Bound biotinylated peptide was detected with streptavidin conjugated to alkaline phosphatase (Sigma Chemical Co., St. Louis, Mo.). After one hour incubation period at room temperature, the wells were washed, and a solution of 3 mM p-nitrophenyl-phosphate (US Biochemicals, Cleveland, Ohio) in 50 mM NaCO3 (pH 9.8), and 50 mM MgCl2 was added and color allowed to develop. Signals were read with an ELISA plate reader (Molecular Devices, Menlo Park, Calif.) at 405 nm wavelength. Binding experiments were performed in triplicate.

The test system of the next test is Xenopus laevis oocytes. Briefly: Progesterone-induced X. laevis oocyte maturation (germinal vesicle breakdown). It counts as cell-based. The following applies: oocytes injected with 40 nL of 100 μM test peptide, 2 μg/mL progesterone; relative to water. On the procedure:
Briefly, Stage VI oocytes were prepared and injected as previously described (see, Kay, B. K., in Methods in Cell Biol. (1991) 36:663-669). Oocytes were injected with 40 nL of 100 μM test peptide or water. After injection, the oocytes were placed in 2 μg/mL progesterone (Sigma, St. Louis, MO) and scored hourly for germinal vesicle breakdown (GVBD). LAPPKPPLPEGEV is SEQ ID NO:70.
Moreover, Xenopus laevis oocytes injected with mRNA encoding constitutively active Src undergo progesterone-induced maturation at an accelerated rate relative to oocytes injected with water or c-Src mRNA. Unger, T. F. and Steele, R. E. in Mol. Cell. Biol. (1992) 12:5485-5498. To explore the ability of the library-derived Src SH3-binding peptides to exert a biochemical effect in vivo, the influence of the peptides on the maturation of Xenopus laevis oocytes was examined. […] The magnitude of this effect is roughly equivalent to that seen with injection of mRNA encoding constituitively active Src. See, e.g., FIG. 3B in Unger, T. F. and Steele, R. E., supra. […]
Segments of adult ovary were removed surgically and incubated in 0.1% collagenase type D (Boehringer Mannheim, Indianapolis, Ind.) in Ca^2+-free OR2 (82.5 mM NaCl, 2.5 mM KCl, 1.0 mM MgCl2, 1.0 mM Na2HPO4, 5.0 mM HEPES, and 3.8 mM NaOH, pH 7.6). […] Oocytes were scored at hourly time points for germinal vesicle breakdown (GVBD).

In another test the target is T2, Yes SH3-GST (Homo sapiens, UniProt P07947).
T2 construct: a construct expressing the SH3 domain of Yes was obtained from Dr. Marius Sudol (Rockefeller University); made in house; host or cells: bacteria (pGEX vector)
T2 sequence (P07947 91-152 limits assumed): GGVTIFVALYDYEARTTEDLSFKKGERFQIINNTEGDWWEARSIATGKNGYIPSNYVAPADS
In words: Biotinylated synthetic peptide binding ELISA to immobilized Yes SH3-GST. To be noted: 10 μM biotinylated peptide, FIG. 8. How it is done: as §1, §2, §3
A general note: ELISA stands for enzyme-linked immunosorbent assay.

A further test concerns the target T3, Grb2-GST (Homo sapiens, UniProt P62993).
T3 construct: made in house; host or cells: bacteria (pGEX vector)
In words: Biotinylated synthetic peptide binding ELISA to immobilized Grb2-GST. To be noted: 10 μM biotinylated peptide, FIG. 8. How it is done: (§4) As mentioned above, the relative specificity of binding was explored. Thus, the relative binding of Src SH3-selected peptides to equal amounts of GST fusions to SH3 domains from different proteins was determined (FIG. 8). While all of the library-derived peptides bound the Src and Yes SH3 domains almost equally well, none of the peptides (with the exception of peptide T12.SRC3.1, the most divergent peptide tested) bound the SH3 domains of Grb2, Crk, Abl or PLCγ1 appreciably.
as §2, with “Briefly, the coding region for a particular SH3 domain can be fused in-frame at the Bam HI site of pGEX-2T.” left out, “Microtiter wells were coated with 5-20 μg GST-SH3 fusion protein in 100 mM NaHCO3, pH 8.5, blocked with 100 mM NaHCO3 (pH 8.5) 1% BSA, and washed. All washes consisted of five applications of 1XPBS, 0.1% Tween 20, 0.1% BSA (Buffer A).” left out
(§5) Peptides were obtained from Research Genetics (Birmingham, Ala.), Chiron Mimotopes (Victoria, Australia), or synthesized by conventional techniques by Dr. J. Mark Carter of Cytogen Corporation (Princeton, N.J.). Peptide purity was assessed by HPLC and/or mass spectrometry. […] Bound biotinylated peptide was detected with streptavidin conjugated to alkaline phosphatase (Sigma Chemical Co., St. Louis, Mo.). […] Signals were read with an ELISA plate reader (Molecular Devices, Menlo Park, Calif.) at 405 nm wavelength. […]

For another test, the system named is PLCγ1 SH2SH3-GST. Briefly: Biotinylated synthetic peptide binding ELISA to immobilized PLCγ1 SH2SH3-GST. To be noted: 10 μM biotinylated peptide, FIG. 8. On the procedure: as §4
as §2, with “Briefly, the coding region for a particular SH3 domain can be fused in-frame at the Bam HI site of pGEX-2T.” left out, “Microtiter wells were coated with 5-20 μg GST-SH3 fusion protein in 100 mM NaHCO3, pH 8.5, blocked with 100 mM NaHCO3 (pH 8.5) 1% BSA, and washed. All washes consisted of five applications of 1XPBS, 0.1% Tween 20, 0.1% BSA (Buffer A).” left out
as §5

In test [1] the target is Src and PI-3′ Kinase SH3 domains. To be noted: Yu et al., biased synthetic peptide library; read-out: binding affinity; cited from earlier work.
Test [2] deals with cellular Src of Xenopus laevis oocytes (Xenopus laevis). In words: cell-based or functional assay.

Entries after “also recorded” stand apart in the source; their conditions may differ.

The values below come from patent publication US6432920B1, “Nck SH3 binding peptides” (Cytogen Corporation, priority 1994, dated 2002).

T3 sequence (P62993 whole entry): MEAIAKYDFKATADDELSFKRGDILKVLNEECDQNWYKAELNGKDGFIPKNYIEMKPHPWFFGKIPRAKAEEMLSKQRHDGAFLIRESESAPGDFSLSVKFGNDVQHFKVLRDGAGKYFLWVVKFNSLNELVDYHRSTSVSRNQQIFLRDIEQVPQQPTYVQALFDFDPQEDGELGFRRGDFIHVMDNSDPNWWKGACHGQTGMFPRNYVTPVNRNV

Turning to “LAPPKPPLPEGEV [proline-rich region of the cytoskeletal protein vinculin, control peptide, reference compound]”, the “binding to Src SH3 domain (Src SH3-GST)” value in the test with Src SH3-GST is “much less well”. Moreover, the “rate of progesterone-induced oocyte maturation (germinal vesicle breakdown)” value in the test on Xenopus laevis oocytes was “not”.
Consider “ANPSPATRPLPTR [synthetic peptide of phage clone T12.SRC3.2]”, for which, in the test with Src SH3-GST, the “binding to Src SH3 domain (Src SH3-GST)” value is “comparable to the core consensus sequence” and the “relative specificity of binding for SH3 domains of different proteins” value (“relative specificity … of different proteins” for short) is reported as “Src family specificity”. In the test with Src SH3-GST (listed as APSPATRPLPTR), the “binding to Src SH3 domain (Src SH3-GST)” value is listed as “avid binding affinity”.
Turning to “RSTPRPLPPLPTTR [representative consensus motif with flanking residues of R8C.YES3.5]”, in the test with Src SH3-GST, the “binding to Src SH3 domain (Src SH3-GST)” value is listed as “much more avidly; also recorded: strong specific binding affinity” and the “relative specificity … of different proteins” value was “highly specific”. Moreover, in the test with Yes SH3-GST, the “binding to Yes SH3 domain (Yes SH3-GST)” value was “much more avidly”.
With “VLKRPLPIPPVTR [synthetic peptide of phage clone T12.SRC3.6]”, in the test with Src SH3-GST, the “binding to Src SH3 domain (Src SH3-GST)” value is recorded as “much more avidly; also recorded: strong binding affinities; also recorded: avid binding affinity” and the “relative specificity … of different proteins” value is reported as “Src preferential”. The “binding to Yes SH3 domain (Yes SH3-GST)” value with Yes SH3-GST is reported as “much more avidly”. The “binding to Grb2 SH3 domain (Grb2-GST)” value with Grb2-GST was “some binding affinities”. The “binding to PLCγ SH3 domain (PLCγ1 SH2SH3-GST)” value (“binding to PLCγ SH3 domain” for short) in the test with PLCγ1 SH2SH3-GST was “little binding affinities”. Further, the “rate of progesterone-induced oocyte maturation (germinal vesicle breakdown)” value in the test with Xenopus laevis oocytes is reported as “faster rate; also recorded: increased rate”.
RPLPPLP: in the test with Src SH3-GST, the “binding to Src SH3 domain (Src SH3-GST)” value is on record as “less effective; also recorded: only weakly”.
On to “RSTPRPLPMLPTTR [synthetic peptide of phage clone R8C.YES3.5]”, for which, in the test with Src SH3-GST, the “binding to Src SH3 domain (Src SH3-GST)” value is given as “much more avidly; also recorded: strong specific binding affinity” and the “relative specificity … of different proteins” value is “highly specific”. Besides, the “binding to Yes SH3 domain (Yes SH3-GST)” value in the test with Yes SH3-GST is “much more avidly”.
As for “GILAPPVPPRNTR [synthetic peptide of phage clone T12.SRC3.1]”, in the test with Src SH3-GST, the “binding to Src SH3 domain (Src SH3-GST)” value is given as “much more avidly; also recorded: binds generically; also recorded: avid binding affinity” and the “relative specificity … of different proteins” value was “binds generically to a broad range of SH3 domains; also recorded: more generic SH3 domain-binding characteristics”. Further, the “binding to Yes SH3 domain (Yes SH3-GST)” value with Yes SH3-GST is reported as “much more avidly”. The “binding to Grb2 SH3 domain (Grb2-GST)” value with Grb2-GST is given as “binds generically”. Moreover, the “binding to PLCγ SH3 domain” value in the test on PLCγ1 SH2SH3-GST is reported as “binds generically”.
For “GTVEPVPPPVPPRRRPESA [reference compound]”, the “binding to Src SH3 domain (Src SH3-GST)” value in the test with Src SH3-GST was “much less well”.
For the molecule “GPHRRLPPTPATR [synthetic peptide of phage clone T12.SRC3.3]”, in the test with Src SH3-GST, the “binding to Src SH3 domain (Src SH3-GST)” value is listed as “much more avidly; also recorded: avid binding affinity” and the “relative specificity … of different proteins” value is recorded as “specific to src family SH3 domains”. The “binding to Yes SH3 domain (Yes SH3-GST)” value with Yes SH3-GST is recorded as “much more avidly”. Further, the “binding to Grb2 SH3 domain (Grb2-GST)” value in the test with Grb2-GST is recorded as “little affinity”. Also, in the test with PLCγ1 SH2SH3-GST, the “binding to PLCγ SH3 domain” value was “little affinity”.
As for KISPPTPKPRPPRPLPV [reference compound], the “binding to Src SH3 domain (Src SH3-GST)” value with Src SH3-GST is “much less well”.
Regarding “RKLPPRPRR [“composite” peptide of Yu et al]”, in test [1], the Kd was 7.6 µM.
For the molecule VLKRPLPIPPVTR (modifications not checked) […], the rate of progesterone-induced maturation of Xenopus laevis oocytes (germinal vesicle breakdown) in test [2] worked out at 1 h.
